In assay [1] the target is Cyno FcRn (cynomolgus monkey) (UniProt Q8SPV9). As to the kind of experiment: SPR (ProteOn), IgG immobilised, cyno FcRn, pH 6.0.
The target of assay [2] is Fcγ IIIa (158 F) (UniProt P08637). The assay can be described thus: effector binding, values nM, method not stated.
Assay [3] concerns the target C1q (UniProt P02745). As to the kind of experiment: effector binding, values nM, method not stated.
Assay [4] deals with Fcγ IIa (UniProt P12318). As to the kind of experiment: effector binding, values nM, method not stated.
Sequence of Fcγ IIa (P12318 34-217 limits assumed): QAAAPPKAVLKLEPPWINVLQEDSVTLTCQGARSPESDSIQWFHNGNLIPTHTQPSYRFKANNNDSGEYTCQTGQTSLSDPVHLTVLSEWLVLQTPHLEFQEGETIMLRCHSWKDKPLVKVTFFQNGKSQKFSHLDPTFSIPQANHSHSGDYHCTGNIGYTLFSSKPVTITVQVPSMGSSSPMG
Assay [5] deals with Fcγ RIa (UniProt P12314). As to the kind of experiment: effector binding, values nM, method not stated.
Sequence of Fcγ RIa (P12314 16-288 limits assumed): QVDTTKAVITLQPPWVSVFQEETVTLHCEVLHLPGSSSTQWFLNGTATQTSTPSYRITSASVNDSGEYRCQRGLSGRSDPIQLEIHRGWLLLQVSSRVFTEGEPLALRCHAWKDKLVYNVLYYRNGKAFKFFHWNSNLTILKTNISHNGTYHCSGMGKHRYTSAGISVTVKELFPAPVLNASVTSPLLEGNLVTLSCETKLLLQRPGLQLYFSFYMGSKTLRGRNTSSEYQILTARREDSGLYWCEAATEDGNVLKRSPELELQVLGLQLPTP
Assay [6] has as its target Recombinant human FcRn (human) (UniProt P55899). The assay can be described thus: SPR (ProteOn), IgG immobilised, pH 6.0.
For assay [7] the target is unchanged. As to the kind of experiment: SPR (ProteOn), IgG immobilised, pH 7.4.
The target in assay [8] is Cyno FcRn (cynomolgus monkey) (UniProt Q8SPV9). The assay can be described thus: SPR (ProteOn), IgG immobilised, cyno FcRn, pH 7.4.
Assay [9] addresses Fcγ IIIa (158 V) (UniProt P08637). As to the kind of experiment: effector binding, values nM, method not stated.
Assay [10] addresses Fcγ IIb (UniProt P31994). The assay can be described thus: effector binding, values nM, method not stated.

Sequence of Cyno FcRn (cynomolgus monkey) (Q8SPV9 24-297 limits assumed, chain 1 of 2): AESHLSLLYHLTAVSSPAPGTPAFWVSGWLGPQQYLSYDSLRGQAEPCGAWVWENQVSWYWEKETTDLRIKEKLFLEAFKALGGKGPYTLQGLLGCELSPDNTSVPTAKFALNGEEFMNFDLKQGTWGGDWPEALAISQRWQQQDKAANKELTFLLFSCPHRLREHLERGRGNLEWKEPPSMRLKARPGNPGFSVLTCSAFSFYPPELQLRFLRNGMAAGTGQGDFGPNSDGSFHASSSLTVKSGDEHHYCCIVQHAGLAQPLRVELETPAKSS
Sequence of Cyno FcRn (cynomolgus monkey) (Q8SPW0 21-119 limits assumed, chain 2 of 2, further chain): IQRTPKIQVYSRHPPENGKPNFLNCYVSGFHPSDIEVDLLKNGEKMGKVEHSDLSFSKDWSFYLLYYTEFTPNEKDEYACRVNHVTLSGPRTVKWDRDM
Sequence of Recombinant human FcRn (human) (P55899 24-297 limits assumed, chain 1 of 2): as the sequence (Q8SPV9 24-297 limits assumed, chain 1 of 2) above, with D39N, Q44E, S99G, G189S, N190S, M217L, T269S counted along it
Sequence of Recombinant human FcRn (human) (b2m, as listed by the source limits assumed, chain 2 of 2): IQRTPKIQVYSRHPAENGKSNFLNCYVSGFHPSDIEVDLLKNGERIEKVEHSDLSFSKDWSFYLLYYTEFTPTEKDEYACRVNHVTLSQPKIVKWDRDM
Sequence of C1q (P02745 23-245, chain 1 of 3): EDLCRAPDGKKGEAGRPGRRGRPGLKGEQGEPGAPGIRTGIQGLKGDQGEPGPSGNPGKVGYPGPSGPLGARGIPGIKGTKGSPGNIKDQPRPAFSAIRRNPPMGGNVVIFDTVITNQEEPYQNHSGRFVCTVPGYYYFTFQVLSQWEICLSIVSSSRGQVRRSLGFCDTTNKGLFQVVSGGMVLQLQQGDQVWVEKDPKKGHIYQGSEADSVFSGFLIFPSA
Sequence of C1q (P02746 28-253, chain 2 of 3, further chain): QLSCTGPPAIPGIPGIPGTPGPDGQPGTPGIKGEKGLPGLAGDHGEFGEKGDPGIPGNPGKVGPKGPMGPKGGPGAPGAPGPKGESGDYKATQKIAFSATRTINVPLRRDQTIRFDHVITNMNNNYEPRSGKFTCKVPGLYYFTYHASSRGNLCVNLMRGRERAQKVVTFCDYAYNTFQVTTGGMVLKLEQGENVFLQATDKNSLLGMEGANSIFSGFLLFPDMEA
Sequence of C1q (P02747 29-245, chain 3 of 3, further chain): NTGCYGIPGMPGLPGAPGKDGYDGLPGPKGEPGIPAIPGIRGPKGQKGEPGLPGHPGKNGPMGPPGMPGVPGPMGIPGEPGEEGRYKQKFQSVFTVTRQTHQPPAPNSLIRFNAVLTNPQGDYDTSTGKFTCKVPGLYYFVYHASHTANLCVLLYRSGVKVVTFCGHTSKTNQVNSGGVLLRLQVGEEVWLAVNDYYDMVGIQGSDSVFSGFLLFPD
Sequence of Fcγ IIIa (158 F) (P08637 17-208 limits assumed): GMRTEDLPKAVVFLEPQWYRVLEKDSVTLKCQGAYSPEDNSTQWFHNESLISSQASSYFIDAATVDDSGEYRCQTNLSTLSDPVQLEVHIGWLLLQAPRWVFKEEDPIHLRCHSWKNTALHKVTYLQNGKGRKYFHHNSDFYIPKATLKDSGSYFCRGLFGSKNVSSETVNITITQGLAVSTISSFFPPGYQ
Sequence of Fcγ IIb (P31994 43-217 limits assumed): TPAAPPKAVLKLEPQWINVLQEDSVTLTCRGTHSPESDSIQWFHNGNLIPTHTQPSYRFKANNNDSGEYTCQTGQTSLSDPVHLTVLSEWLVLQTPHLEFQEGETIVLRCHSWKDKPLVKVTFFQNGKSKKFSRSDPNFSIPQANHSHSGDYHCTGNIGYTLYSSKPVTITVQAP
Sequence of Fcγ IIIa (158 V) (P08637 17-208 F176V limits assumed): as the sequence (P08637 17-208 limits assumed) above, with F160V counted along it

Broadly, the Kd is the equilibrium constant for the complex coming apart. Consider Wildtype Motavizumab (antibody), for which the Kd in [1] worked out at 1920 nM; in assay [2], 4140 nM; in assay [3], 328 nM; in assay [4], 506 nM; in assay [5], 45.8 nM.

Consider HB20.3 (anti-CD20) IgG1 YTE (antibody), for which the Kd in assay [6] stood at 215 nM; in [7], 5800 nM.

Consider Motavizumab YTE (antibody), for which the Kd in assay [1] came to 275 nM; in assay [6], 314 nM; in assay [8] it was 8000 nM; in assay [2] it was 6060 nM; in assay [9], 245 nM; in assay [3] it was 482 nM. The Kd in assay [10] is 1950 nM.
